Experimental findings from patent US20260234211A1 (GUANGDONG RAYNOVENT BIOTECH, published 2026) are described below.

Bridge positions count the residues as written; N and C are the ends. Square brackets hold non-standard residues; d marks the D form. Ends that are not written are not given here. Aib = CC(C)(N)C(=O)O

Assay in all cases: cell-based or functional assay
The target in one test is T1, GIP receptor (GIPR).
T1 sequence (P48546 whole entry, species assumed, looked up): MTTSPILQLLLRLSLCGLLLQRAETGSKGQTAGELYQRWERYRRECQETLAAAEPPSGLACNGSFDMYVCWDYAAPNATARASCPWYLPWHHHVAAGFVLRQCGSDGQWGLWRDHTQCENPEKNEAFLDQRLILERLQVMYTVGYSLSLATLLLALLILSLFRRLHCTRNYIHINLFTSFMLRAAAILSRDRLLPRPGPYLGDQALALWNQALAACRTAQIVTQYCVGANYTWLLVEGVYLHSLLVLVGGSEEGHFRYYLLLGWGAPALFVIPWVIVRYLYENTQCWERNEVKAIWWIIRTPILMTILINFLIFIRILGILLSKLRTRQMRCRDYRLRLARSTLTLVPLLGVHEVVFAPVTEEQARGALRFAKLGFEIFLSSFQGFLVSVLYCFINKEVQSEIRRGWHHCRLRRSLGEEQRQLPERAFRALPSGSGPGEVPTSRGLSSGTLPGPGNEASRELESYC

The target of a further test is GCG receptor (GCGR).
A further test has as its target GLP-1 receptor (GLP-1R).

B1: Example 5 (peptide)
peptide: H[Aib]HGTFTSDYSIYLEKKYA[Aib]KFVQWLLEGGPSSGAPPPS-NH2
modifications: bridge 17-21; not fully specified (residues 17, 21, bridges); also: staple structure only in drawing
In the case of B1, the “GIP-1 EC50 (nM), cAMP assay on CHO cells with GIPR” value in the test with GIP receptor (GIPR) came to 0.007 nM. In addition, in the test with GCG receptor (GCGR), the “GCG EC50 (nM), cAMP assay on HEK293 cells with GCGR” value worked out at 0.012 nM. In the test with GLP-1 receptor (GLP-1R), the “GLP-1 EC50 (nM), cAMP assay on HEK293 cells with GLP-1R” value came out at 0.029 nM.

B2: Example 4 (peptide)
peptide: H[Aib]HGTFTSDYSIYLEKKYA[Aib]EFVKWLLKGGPSSGAPPPS-NH2
modifications: bridge 24-28; not fully specified (residues 24, 28, bridges); also: staple structure only in drawing
As for B2, in the test with GIP receptor (GIPR), the “GIP-1 EC50 (nM), cAMP assay on CHO cells with GIPR” value is 0.016 nM. In addition, the “GCG EC50 (nM), cAMP assay on HEK293 cells with GCGR” value with GCG receptor (GCGR) was found to be 0.143 nM. Besides, the “GLP-1 EC50 (nM), cAMP assay on HEK293 cells with GLP-1R” value with GLP-1 receptor (GLP-1R) worked out at 0.023 nM.
